Among the data in patent US20230183661A1, “BICOMPATIBLE PEPTIDEBIOCOMPATIBLE PEPTIDES FOR INHIBITION OF AGGREGATION OF B-AMYLOID PROTEIN” (Catholic University Industry Academic Cooperation Foundation, priority 2017, published 2023) are Binding strength with β-amyloid values, retold here.

This assay addresses β-amyloid (Aβ) overexpressed in nerve cells (UniProt P05067). Description: Co-IP from N2a cells, relative score.

In turn, ATKAVCVLKGDGPVQGIINFEQKESNGPVKVWGSIKGLT [Peptide 4 (β 1-3 fragment of SOD1)] registered a Binding strength with β-amyloid of 1.
